Legend:
Test in all cases: cell-based or functional assay
[1] = biological target: WT KRAS peptide (SEQ ID NO: 55) pulsed on autologous APCs/DCs of the patient of Example 1 (Patient 4148) (human, UniProt P01903 26-254)
[2] = biological target: KRAS^G12V peptide (SEQ ID NO: 53) pulsed on APCs from the HLA-DRB1 mismatch donor (human)
[3] = biological target: WT KRAS peptide (SEQ ID NO: 55) pulsed on APCs from a donor with a DRB1 01:01 haplotype (human, UniProt P01903 26-254)
[4] = biological target: WT KRAS peptide (SEQ ID NO: 55) pulsed on APCs from a donor with a DRB1 07:01 haplotype (human, UniProt P01903 26-254)
[5] = biological target: WT KRAS peptide (SEQ ID NO: 55) pulsed on APCs from the HLA-DRB1 mismatch donor (human)
WT KRAS peptide (SEQ ID NO: 55) pulsed on APCs from the HLA-DRB1 mismatch donor (human), sequence (P01111 1-24): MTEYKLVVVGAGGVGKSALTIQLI

KRAS^G12V peptide (SEQ ID NO: 53) pulsed on APCs from the HLA-DRB1 mismatch donor (human), sequence (Q05147 1-24, stated change not applied): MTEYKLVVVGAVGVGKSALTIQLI
WT KRAS peptide (SEQ ID NO: 55) pulsed on autologous APCs/DCs of the patient of Example 1 (Patient 4148), sequence (P01903 26-254, chain 2 of 2): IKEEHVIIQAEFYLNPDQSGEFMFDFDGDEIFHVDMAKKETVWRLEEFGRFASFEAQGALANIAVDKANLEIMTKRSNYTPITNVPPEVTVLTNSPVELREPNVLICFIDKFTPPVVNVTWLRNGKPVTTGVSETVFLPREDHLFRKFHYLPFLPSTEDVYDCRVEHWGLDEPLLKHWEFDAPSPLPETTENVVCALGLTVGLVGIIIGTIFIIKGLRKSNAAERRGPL

IFN-γ secretion measured by ELISPOT [1]: ~354 ELISPOT count
IFN-γ secretion measured by ELISPOT [2]: 41 ELISPOT count
IFN-γ secretion measured by ELISPOT [3]: 2 ELISPOT count
IFN-γ secretion measured by ELISPOT [4]: ~291 ELISPOT count
IFN-γ secretion measured by ELISPOT [5]: 58 ELISPOT count
B1: KRAS^G12V-HLA-DRB1*07:01 TCR of Example 2 (cysteine substituted, LVL-modified murine constant region) (TCR, V domains shown)
V domain 1: GENVEQHPSTLSVQEGDSAVIKCTYSDSASNYFPWYKQELGKGPQLIIDIRSNVGEKKDQRIAVTLNKTAKHFSLHITETQPEDSAVYFCAASTGGGNKLTFGTGTQLKVEL
V domain 2: LLLGPAGSGLGAVVSQHPSRVICKSGTSVKIECRSLDFQATTMFWYRQFPKQSLMLMATSNEGSKATYEQGVEKDKFLINHASLTLSTLTVTSAHPEDSSFYICSAREGAGGMGTQYFGPGTRLLVLE

Source: patent US20250250318A1 (US Dept. of Health and Human Services, published 2025)
